Experiments:
[1] = tested on: mAb-PCL(15AA)-IL2-PCL(15AA)-IL2Rα
[2] = tested on: mAb-PCL(15AA)-IL2-PCL(20AA)-IL2Rα

In the case of “recombinant human uPA (R&D Cat #1310-SE)”, the “release of free IL2 after uPA digestion (reducing SDS-PAGE, western blot probed with biotinylated anti-hIL2)” value [1] is reported as “Protease digestion of the IL2 proproteins with uPA resulted in the release of free IL2 from both IL2 proproteins” and the “release of free IL2 after uPA digestion (reducing SDS-PAGE, western blot probed with biotinylated anti-hIL2)” value [2] is reported as “the IL2 proprotein construct comprising a 20AA linker between IL2 and IL2Rα domains displayed a more complete linker digestion and IL2 release relative to the construct comprising a 15AA linker between IL2 and IL2Rα”.

Reference: US20230391844
